In patent US20230357348A1 (AstraZeneca / MedImmune, published 2023):
Starred links: 1 amine or outer side, 2 acyl side, 3 side chain; linkers in the order of their positions; H or OH if unused. Non-standard residues stand in square brackets, D forms with d. Groups on a side chain read outwards from the residue. No end group written: not given here. *: point of attachment. C20 diacid = O=C(O)CCCCCCCCCCCCCCCCCCC(=O)*; C18 diacid = O=C(O)CCCCCCCCCCCCCCCCC(=O)*; γGlu = O=C(O)[C@H](CCC(=O)[*:2])N[*:1]; αMeF = C[C@](N)(Cc1ccccc1)C(=O)O; (PEG)2 = polyethylene glycol 2; AEEA = NCCOCCOCC(=O)O; Aib = CC(C)(N)C(=O)O

B1: Peptide 215 (peptide)
peptide: H[Aib]HGS[αMeF]TSDVSK[αMeF]LDSRAAK([AEEA-AEEA-γGlu-C20 diacid])D[αMeF]VQWIANT-NH2
modifications: N-terminus assumed
SMILES: CC[C@H](C)[C@H](NC(=O)[C@H](Cc1c[nH]c2ccccc12)NC(=O)[C@H](CCC(N)=O)NC(=O)[C@@H](NC(=O)[C@](C)(Cc1ccccc1)NC(=O)[C@H](CC(=O)O)NC(=O)[C@H](CCCCNC(=O)COCCOCCNC(=O)COCCOCCNC(=O)CC[C@H](NC(=O)CCCCCCCCCCCCCCCCCCC(=O)O)C(=O)O)NC(=O)[C@H](C)NC(=O)[C@H](C)NC(=O)[C@H](CCCNC(=N)N)NC(=O)[C@H](CO)NC(=O)[C@H](CC(=O)O)NC(=O)[C@H](CC(C)C)NC(=O)[C@](C)(Cc1ccccc1)NC(=O)[C@H](CCCCN)NC(=O)[C@H](CO)NC(=O)[C@@H](NC(=O)[C@H](CC(=O)O)NC(=O)[C@H](CO)NC(=O)[C@@H](NC(=O)[C@](C)(Cc1ccccc1)NC(=O)[C@H](CO)NC(=O)CNC(=O)[C@H](Cc1c[nH]cn1)NC(=O)C(C)(C)NC(=O)[C@@H](N)Cc1c[nH]cn1)[C@@H](C)O)C(C)C)C(C)C)C(=O)N[C@@H](C)C(=O)N[C@@H](CC(N)=O)C(=O)N[C@H](C(N)=O)[C@@H](C)O
B2: Peptide 213 (peptide)
peptide: H[Aib]HGS[αMeF]TSDVSK[αMeF]LDSRAAK([AEEA-AEEA-γGlu-γGlu-C20 diacid])DFVEWIANT-NH2
modifications: N-terminus assumed
SMILES: CC[C@H](C)[C@H](NC(=O)[C@H](Cc1c[nH]c2ccccc12)NC(=O)[C@H](CCC(=O)O)NC(=O)[C@@H](NC(=O)[C@H](Cc1ccccc1)NC(=O)[C@H](CC(=O)O)NC(=O)[C@H](CCCCNC(=O)COCCOCCNC(=O)COCCOCCNC(=O)CC[C@H](NC(=O)CC[C@H](NC(=O)CCCCCCCCCCCCCCCCCCC(=O)O)C(=O)O)C(=O)O)NC(=O)[C@H](C)NC(=O)[C@H](C)NC(=O)[C@H](CCCNC(=N)N)NC(=O)[C@H](CO)NC(=O)[C@H](CC(=O)O)NC(=O)[C@H](CC(C)C)NC(=O)[C@](C)(Cc1ccccc1)NC(=O)[C@H](CCCCN)NC(=O)[C@H](CO)NC(=O)[C@@H](NC(=O)[C@H](CC(=O)O)NC(=O)[C@H](CO)NC(=O)[C@@H](NC(=O)[C@](C)(Cc1ccccc1)NC(=O)[C@H](CO)NC(=O)CNC(=O)[C@H](Cc1c[nH]cn1)NC(=O)C(C)(C)NC(=O)[C@@H](N)Cc1c[nH]cn1)[C@@H](C)O)C(C)C)C(C)C)C(=O)N[C@@H](C)C(=O)N[C@@H](CC(N)=O)C(=O)N[C@H](C(N)=O)[C@@H](C)O
B3: Peptide 225 (peptide)
peptide: H[Aib]HGS[αMeF]TSDVSK[αMeF]LDSRAAK([AEEA-AEEA-γGlu-C18 diacid])D[αMeF]VQ[Aib]IANT-NH2
modifications: N-terminus assumed
SMILES: CC[C@H](C)[C@H](NC(=O)C(C)(C)NC(=O)[C@H](CCC(N)=O)NC(=O)[C@@H](NC(=O)[C@](C)(Cc1ccccc1)NC(=O)[C@H](CC(=O)O)NC(=O)[C@H](CCCCNC(=O)COCCOCCNC(=O)COCCOCCNC(=O)CC[C@H](NC(=O)CCCCCCCCCCCCCCCCC(=O)O)C(=O)O)NC(=O)[C@H](C)NC(=O)[C@H](C)NC(=O)[C@H](CCCNC(=N)N)NC(=O)[C@H](CO)NC(=O)[C@H](CC(=O)O)NC(=O)[C@H](CC(C)C)NC(=O)[C@](C)(Cc1ccccc1)NC(=O)[C@H](CCCCN)NC(=O)[C@H](CO)NC(=O)[C@@H](NC(=O)[C@H](CC(=O)O)NC(=O)[C@H](CO)NC(=O)[C@@H](NC(=O)[C@](C)(Cc1ccccc1)NC(=O)[C@H](CO)NC(=O)CNC(=O)[C@H](Cc1c[nH]cn1)NC(=O)C(C)(C)NC(=O)[C@@H](N)Cc1c[nH]cn1)[C@@H](C)O)C(C)C)C(C)C)C(=O)N[C@@H](C)C(=O)N[C@@H](CC(N)=O)C(=O)N[C@H](C(N)=O)[C@@H](C)O
B4: Peptide 210 (peptide)
peptide: H[Aib]HGS[αMeF]TSDVSK[αMeF]LDSQAAK([AEEA-AEEA-γGlu-γGlu-C18 diacid])DFVEWIANT-NH2
modifications: N-terminus assumed
SMILES: CC[C@H](C)[C@H](NC(=O)[C@H](Cc1c[nH]c2ccccc12)NC(=O)[C@H](CCC(=O)O)NC(=O)[C@@H](NC(=O)[C@H](Cc1ccccc1)NC(=O)[C@H](CC(=O)O)NC(=O)[C@H](CCCCNC(=O)COCCOCCNC(=O)COCCOCCNC(=O)CC[C@H](NC(=O)CC[C@H](NC(=O)CCCCCCCCCCCCCCCCC(=O)O)C(=O)O)C(=O)O)NC(=O)[C@H](C)NC(=O)[C@H](C)NC(=O)[C@H](CCC(N)=O)NC(=O)[C@H](CO)NC(=O)[C@H](CC(=O)O)NC(=O)[C@H](CC(C)C)NC(=O)[C@](C)(Cc1ccccc1)NC(=O)[C@H](CCCCN)NC(=O)[C@H](CO)NC(=O)[C@@H](NC(=O)[C@H](CC(=O)O)NC(=O)[C@H](CO)NC(=O)[C@@H](NC(=O)[C@](C)(Cc1ccccc1)NC(=O)[C@H](CO)NC(=O)CNC(=O)[C@H](Cc1c[nH]cn1)NC(=O)C(C)(C)NC(=O)[C@@H](N)Cc1c[nH]cn1)[C@@H](C)O)C(C)C)C(C)C)C(=O)N[C@@H](C)C(=O)N[C@@H](CC(N)=O)C(=O)N[C@H](C(N)=O)[C@@H](C)O
B5: Peptide 246 (peptide)
peptide: H[Aib]HGS[αMeF]TSDVSK[αMeF]LDSRAAK([AEEA-AEEA-γGlu-γGlu-C20 diacid])D[αMeF]VESIANT-NH2
modifications: N-terminus assumed
SMILES: CC[C@H](C)[C@H](NC(=O)[C@H](CO)NC(=O)[C@H](CCC(=O)O)NC(=O)[C@@H](NC(=O)[C@](C)(Cc1ccccc1)NC(=O)[C@H](CC(=O)O)NC(=O)[C@H](CCCCNC(=O)COCCOCCNC(=O)COCCOCCNC(=O)CC[C@H](NC(=O)CC[C@H](NC(=O)CCCCCCCCCCCCCCCCCCC(=O)O)C(=O)O)C(=O)O)NC(=O)[C@H](C)NC(=O)[C@H](C)NC(=O)[C@H](CCCNC(=N)N)NC(=O)[C@H](CO)NC(=O)[C@H](CC(=O)O)NC(=O)[C@H](CC(C)C)NC(=O)[C@](C)(Cc1ccccc1)NC(=O)[C@H](CCCCN)NC(=O)[C@H](CO)NC(=O)[C@@H](NC(=O)[C@H](CC(=O)O)NC(=O)[C@H](CO)NC(=O)[C@@H](NC(=O)[C@](C)(Cc1ccccc1)NC(=O)[C@H](CO)NC(=O)CNC(=O)[C@H](Cc1c[nH]cn1)NC(=O)C(C)(C)NC(=O)[C@@H](N)Cc1c[nH]cn1)[C@@H](C)O)C(C)C)C(C)C)C(=O)N[C@@H](C)C(=O)N[C@@H](CC(N)=O)C(=O)N[C@H](C(N)=O)[C@@H](C)O

Columns and labels:
human glucagon receptor = human glucagon receptor (human, UniProt P47871 26-477); assay: cell-based or functional assay
Sequence of human glucagon receptor (P47871 26-477): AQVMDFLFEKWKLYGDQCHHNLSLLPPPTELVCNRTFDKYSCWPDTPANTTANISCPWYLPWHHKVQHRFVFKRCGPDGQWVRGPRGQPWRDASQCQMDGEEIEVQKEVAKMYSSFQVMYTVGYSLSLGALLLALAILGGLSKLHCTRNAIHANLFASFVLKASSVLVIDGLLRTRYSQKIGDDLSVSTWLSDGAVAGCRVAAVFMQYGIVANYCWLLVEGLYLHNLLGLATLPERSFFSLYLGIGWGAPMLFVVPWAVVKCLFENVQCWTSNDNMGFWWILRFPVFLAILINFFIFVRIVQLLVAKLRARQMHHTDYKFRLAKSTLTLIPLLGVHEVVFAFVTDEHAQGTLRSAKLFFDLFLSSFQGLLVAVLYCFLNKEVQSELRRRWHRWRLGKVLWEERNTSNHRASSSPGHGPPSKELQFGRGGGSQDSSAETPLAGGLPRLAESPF

human GLP-1 receptor = human GLP-1 receptor (human, UniProt P43220 24-463); assay: cell-based or functional assay

Binder | hGluc-R EC50 (pM), cAMP (human glucagon receptor) | hGLP-1R EC50 (pM), cAMP (human GLP-1 receptor)
B1 | 2610 pM | 7620 pM
B2 | 141 pM | 534 pM
B3 | 145 pM | 34.9 pM
H[Aib]HGS[αMeF]TSDVSK[αMeF]LDSRAAK([AEEA-AEEA-γGlu-C18 diacid])D[αMeF]VE[Aib]IANT-NH2 [Peptide 227] | 27.2 pM | 70.5 pM
H[Aib]HGS[αMeF]TSDVSK[αMeF]LDSR[Aib]AK([AEEA-AEEA-γGlu-C20 diacid])DFVESIANT-NH2 [Peptide 252] | 1310 pM | 119 pM
H[Aib]HGS[αMeF]TSDVSK[αMeF]LDSR[Aib]AK([AEEA-AEEA-γGlu-γGlu-C20 diacid])DFVQ[Aib]IANT-NH2 (not fully specified) [Peptide 221] | 123 pM | 122 pM
H[Aib]HGS[αMeF]TSDVSK[αMeF]LDSR[Aib]AK([γGlu-C18 diacid])DFVESIANT-NH2 [Peptide 254] | 125 pM | 102 pM
H[Aib]HGS[αMeF]TSDVSK[αMeF]LDSR[Aib]AK([AEEA-AEEA-γGlu-γGlu-C18 diacid])D[αMeF]VESIANT-NH2 [Peptide 250] | 1570 pM | 601 pM
H[Aib]HGS[αMeF]TSDVSK[αMeF]LDSR[Aib]AK([AEEA-AEEA-γGlu-C18 diacid])DFVESIANT-NH2 (not fully specified) [Peptide 251] | 248 pM | 79.8 pM
H[Aib]HGS[αMeF]TSDVSK[αMeF]LDSR[Aib]AK([AEEA-γGlu-C18 diacid])DFVESIANT-NH2 [Peptide 253] | 53.1 pM | 75.5 pM
B4 | 93.7 pM | 156 pM
H[Aib]HGS[αMeF]TSDVSK[αMeF]LDSRAAK([(PEG)2-(PEG)2-γGlu-γGlu-C18 diacid])D[αMeF]VQ[Aib]IANT-NH2 [Peptide 258] | 93.1 pM | 34 pM
H[Aib]HGS[αMeF]TSDVSK[αMeF]LDSRAAK([AEEA-AEEA-γGlu-γGlu-C20 diacid])D[αMeF]VQSIANT-NH2 (not fully specified) [Peptide 244] | 420 pM | 143 pM
H[Aib]HGS[αMeF]TSDVSK[αMeF]LDSRAAK([AEEA-γGlu-AEEA-C18 diacid])D[αMeF]VQ[Aib]IANT-NH2 [Peptide 259] | 34.8 pM | 19.1 pM
H[Aib]HGS[αMeF]TSDVSK[αMeF]LDSQAAK([AEEA-AEEA-γGlu-γGlu-C20 diacid])D[αMeF]VQ[Aib]IANT-NH2 [Peptide 256] | 1310 pM | 346 pM
B5 | 557 pM | 320 pM
